Measurements from article PMC3777900.

Target: Mouse myosin 5a HMM (m5-HMM), heavy chain (mouse) (UniProt Q99104)
Assay: photo-bleaching step counting by TIRF microscopy; single molecules bound on a cover glass surface after exchange with Alexa488-CaM at 5:1 (Alexa488-CaM: myosin); step-wise photo-bleaching counted

Chain of UniProt Q99104 (Q99104 whole entry): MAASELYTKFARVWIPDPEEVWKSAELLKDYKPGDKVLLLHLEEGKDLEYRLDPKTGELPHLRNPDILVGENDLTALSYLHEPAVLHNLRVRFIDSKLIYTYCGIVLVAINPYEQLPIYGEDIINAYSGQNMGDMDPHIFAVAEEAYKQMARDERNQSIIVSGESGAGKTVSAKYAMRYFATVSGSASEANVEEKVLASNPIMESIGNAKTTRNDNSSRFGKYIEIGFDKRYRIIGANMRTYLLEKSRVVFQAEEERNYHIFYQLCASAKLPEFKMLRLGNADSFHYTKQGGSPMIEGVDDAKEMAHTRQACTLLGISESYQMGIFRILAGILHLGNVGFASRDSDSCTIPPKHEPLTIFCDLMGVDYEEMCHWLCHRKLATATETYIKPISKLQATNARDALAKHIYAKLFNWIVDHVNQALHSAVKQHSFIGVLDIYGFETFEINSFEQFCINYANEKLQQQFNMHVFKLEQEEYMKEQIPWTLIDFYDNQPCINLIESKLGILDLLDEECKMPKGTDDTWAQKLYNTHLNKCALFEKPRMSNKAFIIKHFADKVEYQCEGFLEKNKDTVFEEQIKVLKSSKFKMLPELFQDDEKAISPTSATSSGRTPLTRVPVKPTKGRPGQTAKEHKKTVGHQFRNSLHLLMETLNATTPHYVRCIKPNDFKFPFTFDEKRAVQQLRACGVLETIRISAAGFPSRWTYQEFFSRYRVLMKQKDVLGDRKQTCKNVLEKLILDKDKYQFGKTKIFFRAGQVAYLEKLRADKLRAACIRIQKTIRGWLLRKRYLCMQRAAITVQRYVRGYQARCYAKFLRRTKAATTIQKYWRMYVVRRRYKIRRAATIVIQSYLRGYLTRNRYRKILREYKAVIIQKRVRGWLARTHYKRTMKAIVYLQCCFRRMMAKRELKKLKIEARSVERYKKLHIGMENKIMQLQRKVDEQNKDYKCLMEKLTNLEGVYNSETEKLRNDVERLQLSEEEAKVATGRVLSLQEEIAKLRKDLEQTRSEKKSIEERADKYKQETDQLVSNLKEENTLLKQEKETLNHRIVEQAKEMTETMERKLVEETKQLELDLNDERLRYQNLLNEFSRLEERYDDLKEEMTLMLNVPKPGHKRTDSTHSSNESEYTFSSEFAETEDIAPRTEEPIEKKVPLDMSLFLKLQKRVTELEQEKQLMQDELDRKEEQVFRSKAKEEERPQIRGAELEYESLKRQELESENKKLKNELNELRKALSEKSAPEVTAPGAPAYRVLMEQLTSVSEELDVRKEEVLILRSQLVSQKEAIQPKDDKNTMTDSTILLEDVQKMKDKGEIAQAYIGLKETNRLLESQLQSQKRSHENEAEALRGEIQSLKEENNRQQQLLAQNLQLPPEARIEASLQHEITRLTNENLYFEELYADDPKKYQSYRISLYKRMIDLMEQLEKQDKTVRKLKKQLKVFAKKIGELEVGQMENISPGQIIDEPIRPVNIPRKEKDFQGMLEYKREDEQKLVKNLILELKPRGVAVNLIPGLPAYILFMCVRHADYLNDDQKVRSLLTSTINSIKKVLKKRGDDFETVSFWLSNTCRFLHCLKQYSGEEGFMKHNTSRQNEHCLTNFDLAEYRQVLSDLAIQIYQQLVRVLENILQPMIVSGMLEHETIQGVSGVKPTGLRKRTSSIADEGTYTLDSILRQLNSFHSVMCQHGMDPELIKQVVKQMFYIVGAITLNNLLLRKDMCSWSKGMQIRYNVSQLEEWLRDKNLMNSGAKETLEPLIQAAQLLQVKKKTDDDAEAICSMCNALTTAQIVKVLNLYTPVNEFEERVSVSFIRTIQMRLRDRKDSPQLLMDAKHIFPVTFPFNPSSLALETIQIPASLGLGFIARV

| Alexa488-CaM molecules exchanged into one myosin molecule | stoichiometry N | Substance |
| --- | --- | --- |
| 2 |  | Alexa Fluor 488-labeled bovine calmodulin (from UniProt P62157 1-149) (natural protein) |
|  | 2 | Mouse myosin 5a HMM (m5-HMM), heavy chain (from UniProt Q99104 1-1853) (domain or fragment) |
